Data set [1] relates to pathogenic fungus or bacterium (Blumeria graminis, Pythium spec., Botrytis cinerea, Pseudomonas syringae and others). In words: Pathogen infection of transgenic Arabidopsis thaliana. Conditions: transgenic plants, sense orientation; fluorescence and light microscopy. The format is in vivo.
The test system of data set [2] is Blumeria graminis f.sp. hordei. Description: Transient transformation of barley leaf segments, powdery mildew penetration. The format is cell-based, barley cv. Pallas. Conditions: for haustorial growth of the fungus in transformed cells: Calcofluor staining, fluorescence microscopy; for effect on total number or number of attacked GFP-expressing cells: compared with control cDNA experiments; for average % RPE value (relative penetration efficiency): deviation from average penetration efficiency of the control; for reduction of penetration efficiency by Blumeria graminis f.sp. hordei: on average, six experiments, versus control cDNA (TR), 48 hours after inoculation. How it is done:
Barley cv. Pallas leaf segments were transformed with a cDNA of Pp291 or Pp364 which were present in the GFP expression vector (green fluorescence protein). The leaves were subsequently inoculated with the pathogenic fungus Blumeria graminis f.sp. hordei (powdery mildew of barley), and the result was analyzed after 48 hours by means of light microscopy and fluorescence microscopy. The penetration into GFP-expressing cells was assessed by detecting haustoria in live cells and by assessing the fungal development in precisely those cells. […].
The transient transformation of barley was carried out with a method which had already been described for the biloistic introduction of cDNA into epidermal cells of barley leaves (Schweizer P et al. (1999) Mol Plant Microbe Interact 12:647-54; Schweizer P et al. (2000) Plant J 2000 24:895-903). Tungsten particles with a diameter of […] (particle density 25 mg/ml) were coated with cDNA together with plasmid DNA of the vector pGFP (GFP under the control of the CaMV 35S promoter) as transformation marker. To this end, the following amount of cDNA and reporter plasmid were used for coating purposes for each bombardment: 1 mg of pGFP and 2 mg of cDNA. To prepare the microcarriers, 55 mg of tungsten particles (M 17, diameter […]; Bio-Rad, Munich) were washed twice with 1 ml of autoclave distilled water and once with 1 ml of absolute ethanol, dried and taken up in 1 ml of 50% strength glycerol (approximately 50 mg/ml stock solution). The solution was diluted with 50% strength glycerol to 25 mg/ml, mixed thoroughly before use and suspended in an ultrasonic bath. To coat the microcarriers, 1 mg of plasmid, 2 mg of cDNA (1 mL), […] of tungsten particle suspension (25 mg/ml), […] of 1 M Ca(NO3)2 solution (pH 10) per bombardment were combined dropwise with constant mixing, left to stand for 10 minutes at RT and centrifuged briefly, and […] of supernatant were removed. The remainder, which contained the tungsten particles, is resuspended (ultrasonic bath) and employed in the experiment.
Barley primary leaf segments approximately 4 cm in length were used. The tissue was placed on 0.5% Phytagar (GibcoBRLt Life Technologiest, Karlsruhe) supplemented with […] benzimidazole in Petri dishes (diameter 6.5 cm); immediately prior to the particle bombardment, the edges were covered with a stencil with a rectangular slot 2.2 cm×2.3 cm in size. One after the other, the dishes were placed on the bottom of the vacuum chamber (Schweizer P et al. (1999) Mol Plant Microbe Interact 12:647-54) above which a nylon mesh (mesh size 0.2 mm, Millipore, Eschborn) had been inserted on a perforated board (5 cm above the bottom, 11 cm underneath the macrocarrier, see hereinbelow) to act as diffuser in order to diffuse particle aggregations and to slow down the particle stream. For each bombardment, the macrocarrier (plastic sterile filter holder 13 mm, Gelman Sciences, Swinney, UK) which had been attached at the top of the chamber was loaded with […] of DNA-coated tungsten particles (microcarrier, see hereinbelow). The pressure in the chamber was reduced by 0.9 bar using a membrane vacuum pump (Vacuubrand, Wertheim), and the surface of the plant tissue was bombarded with the tungsten particles at a helium gas pressure of 9 bar. The chamber was aerated immediately thereafter.
To label transformed cells, the leaves were bombarded with the plasmid (pGFP; pUC18-based vector, CaMV 35S promoter/terminator cassette with inserted GFP gene; Schweizer P et al. (1999) Mol Plant Microbe Interact 12:647-54; provided by Dr P. Schweizer, Schweizer P, Institute of Plant Genetics IPK, Gatersleben, Germany). Before carrying out the bombardment with another plasmid, the macrocarrier was cleaned thoroughly with water in each case. […]

The nature of data set [3]: HPLC analysis of DNPH-derivatized volatile aldehydes. The format is biochemical. Conditions: substrates 13-HPOTE and 9-HPODE, DNPH derivatives. The source says:
The reaction of hydroperoxides with DES gives rise to divinyl ethers which hydrolyze in an acidic environment to give aldehydes. These aldehydes are volatile. In order to identify these aldehydes which are formed, they can be derivatized with DNPH (Kohlmann et al.; 1999, Eur. J. Biochem. 260, 885-895). The hydrazones thus formed are no longer volatile and can be identified with the aid of an HPLC analysis via their retention time.

Turning to “Pp364 cDNA: complete cDNA encoding the Physcomitrella patens divinyl ether synthase, used to transform barley and Arabidopsis”, in data set [1], the “resistance to pathogens in comparison with the wild type” value is “increased resistance”. In data set [2], the “haustorial growth of the fungus in transformed cells” value is “no haustorial growth takes place”, the “effect on total number or number of attacked GFP-expressing cells” value is on record as “no effect”, the “average % RPE value (relative penetration efficiency)” value was −30% and the “reduction of penetration efficiency by Blumeria graminis f.sp. hordei” value turned out to be 44%.

B1: Pp291 cDNA: complete cDNA encoding the Physcomitrella patens allene oxide synthase, used to transform barley and Arabidopsis (nucleic acid, listed as Physcomitrella patens)
DNA: ATGGCAGTCCCTTCATCCAAGCTGCCGTTGAAGGCGATTCCTGGAGACTATGGAGTCCCCTACTTCGGTGCCATAAAGGATCGACTAGACTACTTTTGGTTGCAGGGGGAGGAGCAGTTTTACCGAAGCCGGATGGCCAAGTACAATAGCACGGTGTTTCGTGTCAACATGCCGCCTGGCCCTCCAATTTCCGAACACCCTCAAGTCATCTGCCTCTTGGATCAGAAAAGCTTTCCAATTCTGTTCGACGTTAGCAAGGTTGAGAAAAAGGACGTGTTCACAGGAACATACATGCCGAGTGTGAGCTTCACCAGCGGGTACCGCGTTTGCTCCTACTTGGATCCCTCTGAGGAACGCCACACGAAGCTCAAGCAATGGTGCTTTGAAGTCATTGCGATGAACGGGCGGAACTTTCTTCCCGAGTTTCACAAGTCGATTGAAGAGTCGATGGTGCTCTGGGAGACGAGTCTGGCCAAGGGCGAGAAGACTAGCGTATCGGATGAGGTGAAACAGTTCGCGTTTAATTTCCTGATGCGCGCTGTATGCCATCACGACCCCGCTGCGCCTGGAGAATACAGCTTAGGGCGTAATGGTGGCCCGTATGCAACCGCCTGGGCAAATCCCCAGCTCGCTCCGATTGCAGGACAGACGGGTCTCCCCCATGTCGTGGAGGAGCTCGTGTTACACACCGTCCCACTCCCCTCTGCCCTGGTCAAGAAGAACTACGATGCCCTCTACAATTTCATCAAAAACTACGCCACCGAGGCGCTGGATAGGGCTGAAGCTATGGGCATCGAGCGCAATGACGCCACTGCCAACCTGCTGTTCTTCCTTTGCTTTAACGCCTACGGCGGATTCAGCATCTTCTTCCCCCTCATCACTATCCTCATTTCTTCATGCGGTCCGGAGCTCATGCACGATCTCCACGACGAAGTCACCAAGGCCGTCGCCGCCACAGATGGGAAAGTCACTCTTCAATCCATCGAGAACATGCCATTGGTGAAGTCCGTCGTCTACGAAGCTTTCCGATTCAAGCCCCCAGTGCCATACCAATACGGCAAGGCCAAGTTCGACTTCACCATAGAGAACCACGAAAACTCCTTCGAGGTCAAGAAGGGAGAAATGCTGTATGGTTATCAACCTATCGTGATGCACGACCCCAAGGTCTTCTCGGACCCAGATCAGTTTCTACCTCGACGATTCATGGGCCCCGACGGCGAGAAGCTCATCAAATACATCTTCTGGTCCAATGGTTACGAGACTGACGAGCCGACTACCGCAAACAAGCAGTGCGCCGGAAAGGACTTGGTGGTCACAATGGCGCGAGCATTCGTCGCAGAAATGTTCTTGAGATATAAAGAGTATACCCTGACCATGGAGGGCGCAGGAAATGCGACCAAGGTTTTCTTTTCCGATCTCAAAAAGTGA
modifications: CDS (1)..(1428) Pp291 Allenoxid-Synthase
notes: complete cDNA encoding the Physcomitrella patens allene oxide synthase, used to transform barley and Arabidopsis
For the molecule B1, the “resistance to pathogens in comparison with the wild type” value in data set [1] is on record as “increased resistance”. Moreover, in data set [2], the “haustorial growth of the fungus in transformed cells” value is reported as “no haustorial growth takes place”, the “effect on total number or number of attacked GFP-expressing cells” value is reported as “no effect”, the “average % RPE value (relative penetration efficiency)” value is on record as −30% and the “reduction of penetration efficiency by Blumeria graminis f.sp. hordei” value amounted to 44%.

B2: Pp291: Physcomitrella patens CYP74A allene oxide synthase, 475 amino acids, recombinantly expressed in E. coli (protein, listed as Physcomitrella patens)
chain: MAVPSSKLPLKAIPGDYGVPYFGAIKDRLDYFWLQGEEQFYRSRMAKYNSTVFRVNMPPGPPISEHPQVICLLDQKSFPILFDVSKVEKKDVFTGTYMPSVSFTSGYRVCSYLDPSEERHTKLKQWCFEVIAMNGRNFLPEFHKSIEESMVLWETSLAKGEKTSVSDEVKQFAFNFLMRAVCHHDPAAPGEYSLGRNGGPYATAWANPQLAPIAGQTGLPHVVEELVLHTVPLPSALVKKNYDALYNFIKNYATEALDRAEAMGIERNDATANLLFFLCFNAYGGFSIFFPLITILISSCGPELMHDLHDEVTKAVAATDGKVTLQSIENMPLVKSVVYEAFRFKPPVPYQYGKAKFDFTIENHENSFEVKKGEMLYGYQPIVMHDPKVFSDPDQFLPRRFMGPDGEKLIKYIFWSNGYETDEPTTANKQCAGKDLVVTMARAFVAEMFLRYKEYTLTMEGAGNATKVFFSDLKK
For B2, in data set [3], the “formation of aldehydes in reaction mixture” value is given as “No aldehydes were detected”.

B3: Pp364: Physcomitrella patens CYP74E divinyl ether synthase, 532 amino acids, recombinantly expressed in E. coli (protein, listed as Physcomitrella patens)
chain: MDRTLVLTCTTTCSHSAFRQSALPSNTSISVRLGTCSVRTQKRRTVVASLGNIETTSTSTVGQESNLPLREIPGSYGIPYLSQLLDRWTFFYREGEPQFWQSRMAKYGSTVIRSNMPPGWFWTDSRCIMLLDQKSYPTVFDYDKVDKYKAFAGTIMPSTEYNGGYEVCAYLDASDKKHEQLKGYCFELLKFSSSKWAREFHTAISETFNQWEGKLAQKTPALINPTLPESLFSFVINALTTARFDDSSIPDAEKPVCGDLQKWAGFQLMPVIRTGAPIYIEEMLHVAPIPASLTKGGYDKMVVFLQKYAAETLSIAEKFGLSQDEAVHNLIFFLILNAHGGFCRFLPVILREVAKNGQLQADLREEVRAAVKASGSDQVTMKAVMNDMPLVASTVFEALRFDPPVPFQYARAKKDFIIESHDARYQIKTGDFLGGVNYMVSRDPKVFTDRPNEFNARRFMGPEGDKLLAHLVWSNGRQTDETTVYTKQCAGKEIVPLTGRLLLAELFMRFDSFNIEGLEMEATFTSLTPRSD
As to B3, in data set [3], the “formation of aldehydes in reaction mixture” value is reported as “aldehydes are formed”.

The record behind these values is US7786348B2, “Methods for producing pathogen-resistant plants with allene oxide synthase and divinyl ether synthase, and the amino acid and nucleotide sequences thereof” (BASF Plant Science GmbH, priority 2001, dated 2010).
